Assay results as given in article PMC1971552, “A chelating derivative of alpha-melanocyte stimulating hormone as a potential imaging agent for malignant melanoma” (British Journal of Cancer, 1990).

Test system: DBA/2 mice bearing Cloudman S91 melanomas
Conditions: mouse, in vivo
Description: Br. J. Cancer (1990), 62, 919-922 C) Macmillan Press Ltd., 1990 A chelating derivative of oa-melanocyte stimulating hormone as a potential imaging agent for malignant melanoma D.R. Bard, C.G. Knight & D.P. Page-Thomas Strangeways Research Laboratory, Worts' Causeway, Cambridge CB] 4RN, UK Summary A chelating derivative of a-melanocyte stimulating hormone (MSH) has been synthesised, in which two molecules of the hormone are cross-linked by diethylenetriamine pentaacetic acid (DTPA). […] When DBA/2 mice bearing the same tumour were injected with bisMSH-DTPA labelled with the 'y-emitting isotope indium-1Il ("'In), the radioactivity became rapidly associated with the melanoma tissue. […] Uptake of radioactivity by the tumours was inhibited by a 200-fold molar excess of MSH, whereas uptake by liver, kidney, spleen, lung, brain, eye and skin was unaffected. We conclude that bisMSH-DTPA may offer an alternative to antibody targeting in the imaging of malignant melanoma. Malignant melanoma is characterised by a tendency to meta- stasise early and to be resistant to most conventional therapies. The initial surgical management of the disease would benefit if it were possible to discover whether metas- tasis had taken place and to which locations. […]

## CSCC[C@H](NC(=O)[C@H](CO)NC(=O)[C@H](Cc1ccc(O)cc1)NC(=O)[C@H](CO)NC(=O)CN(CCN(CCN(CC(=O)O)CC(=O)N[C@@H](CO)C(=O)N[C@@H](Cc1ccc(O)cc1)C(=O)N[C@@H](CO)C(=O)N[C@@H](CCSC)C(=O)N[C@@H](CCC(=O)O)C(=O)N[C@@H](Cc1c[nH]cn1)C(=O)N[C@@H](Cc1ccccc1)C(=O)N[C@@H](CCCNC(=N)N)C(=O)N[C@@H](Cc1c[nH]c2ccccc12)C(=O)NCC(=O)N[C@@H](CCCCN)C(=O)N1CCC[C@H]1C(=O)N[C@H](C(N)=O)C(C)C)CC(=O)O)CC(=O)O)C(=O)N[C@@H](CCC(=O)O)C(=O)N[C@@H](Cc1c[nH]cn1)C(=O)N[C@@H](Cc1ccccc1)C(=O)N[C@@H](CCCNC(=N)N)C(=O)N[C@@H](Cc1c[nH]c2ccccc12)C(=O)NCC(=O)N[C@@H](CCCCN)C(=O)N1CCC[C@H]1C(=O)N[C@H](C(N)=O)C(C)C [bisMSH-DTPA]
  crossing of the blood-brain barrier: unable to cross the blood-brain barrier
ip
  maximum level in the blood following injection: about 0.8 µg ml-1
